Experimental findings from patent publication US20110059095A1 (Regeneron, published 2011) are described below.

Where a chain is given by its changes, count along the chain named. Where no end group is shown, it is not given here. The star is where a group is joined. Biotin = O=C1N[C@H]2[C@H](CS[C@H]2CCCCC(=O)*)N1

In experiment [1] the target is T1, Peptide A (human PAR-2), N-terminal biotinylated (Human, N-terminal biotin via G4S linker).
T1 construct: also called Peptide A N-Term
T1 peptide: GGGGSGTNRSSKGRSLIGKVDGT
The experiment in a line: peptide ELISA titration. The procedure:
(§1) Anti-PAR-2 antibodies were tested for their ability to bind to the PAR-2 peptides. Various PAR-2 Peptides (Table 3) were coated onto 96-well plates at a concentration of 2 μg/ml and incubated overnight followed by blocking in a suitable blocking agent for one hour. […] Purified anti-PAR-2 antibodies were added to the plate coated with PAR-2 peptides to a final concentration ranging from 0.2 to 2.0 μg/ml and incubated for one hour at room temperature. Detection of bound antibodies was determined with Horse-Radish Peroxidase (HRP) conjugated anti-mouse or human IgG (Jackson Immuno Research Lab, West Grove, Pa.) and developed by standard colorimetric response using tetramethylbenzidine (TMB) substrate. Absorbance was read at OD₄₅₀ for 0.1 second.
(§2) In another experiment, selected anti-PAR-2 antibodies cloned onto human IgG4 were tested for binding to unbiotinylated and biotinylated forms of PAR-2 peptides (Peptides A, E, F and G; as described above). […] Absorbance values at 450 nm were analyzed using a sigmoidal dose-response model in GraphPad Prism (GraphPad Software, Inc., La Jolla, Calif.) and EC₅₀ values were reported (Table 9). EC₅₀ values are defined as the antibody concentration required to achieve 50% maximal binding to PAR-2 peptide.

Experiment [2] deals with T2, Peptide F (monkey PAR-2), N-terminal biotinylated (Monkey (Macaca mulatta), N-terminal biotin via G4S linker).
T2 construct: also called Peptide F N-Term
T2 sequence (peptide, as listed by the source): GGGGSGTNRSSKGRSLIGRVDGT
Nature of the experiment: peptide ELISA titration. How it is done: as §1, §2

For experiment [3], the target named is T3, Peptide A (human PAR-2), C-terminal biotinylated (Human, C-terminal biotin via G4S linker).
T3 construct: also called Peptide A C-Term
The experiment in a line: peptide ELISA titration. The procedure: as §1, §2

In experiment [4] the target is T4, Peptide A (human PAR-2), unbiotinylated (Human).
T4 construct: also called Peptide A No Biotin
T4 peptide: GTNRSSKGRSLIGKVDGT
The experiment in a line: peptide ELISA titration. How it is done:
as §1, §2

In experiment [5] the target is T5, full length human PAR-2 (human, UniProt P55085 26-397).
T5 construct: overexpressed on HEK293-derived 293/D9 cells; also called 293/D9/hPAR-2rec cells
T5 sequence (P55085 26-397 G138A limits assumed): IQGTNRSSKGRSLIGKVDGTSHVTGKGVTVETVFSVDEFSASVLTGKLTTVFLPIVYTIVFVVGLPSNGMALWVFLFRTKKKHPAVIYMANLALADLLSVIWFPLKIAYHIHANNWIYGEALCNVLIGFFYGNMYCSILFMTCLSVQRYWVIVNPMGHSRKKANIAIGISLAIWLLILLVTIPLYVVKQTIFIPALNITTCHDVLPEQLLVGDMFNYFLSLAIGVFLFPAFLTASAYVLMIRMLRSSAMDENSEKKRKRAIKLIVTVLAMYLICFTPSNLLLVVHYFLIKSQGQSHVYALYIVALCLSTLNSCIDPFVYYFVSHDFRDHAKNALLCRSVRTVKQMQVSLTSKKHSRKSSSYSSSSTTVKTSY
Nature of the experiment: MSD cell binding. How it is done: HEK293 cells were transfected with an NF-κB-luciferase-IRES-eGFP reporter plasmid. […] A clonal cell line, named D9, having low background levels of luciferase activity and high levels of eGFP when induced with IL-1β was made by a series of successive sorts of cell populations using flow cytometry. The 293/D9 cell line was then separately transfected with human PAR-2 or mouse PAR-2 to create the stable cell lines 293/D9/h PAR-2rec and 293/D9/m PAR-2rec, respectively.
Cells were plated on MSD high-bind 96 well plates at a density of 4×10⁴ cells/well in PBS and incubated for one hour at room temperature. Cells were then blocked in PBS with 2% BSA and incubated at room temperature for one hour. Anti-PAR-2 antibodies (ranging from 100 nM to 0.098 nM) were serially diluted two-fold in PBS with 0.5% BSA and incubated with the cells for one hour at room temperature followed by washing in PBS with 0.5% BSA. Sulfo-tagged anti-human IgG antibody (MSD) at a concentration of 0.1 μg/ml was then added to the cell/antibody mixture and incubated at room temperature for an additional hour. After another wash, a 1× non-surfactant containing read buffer was added and electro-chemiluminescent signal was read on the MSD Sector Imager. Signal of antibody binding to 293/D9 cells was subtracted from signal to 293/D9/hPAR-2rec or 293/D9/mPAR-2rec cells. Subtracted data were analyzed using a sigmoidal dose-response model in GraphPad Prism and EC₅₀ and Bₘₐₓ values were reported (Table 18). EC₅₀ values are defined as the antibody concentration required to achieve 50% maximal binding (Bₘₐₓ) to cells.

Experiment [6] concerns the target T2, Peptide F (monkey PAR-2), N-terminal …. The experiment in a line: SPR, antibody captured. The procedure: (§3) Equilibrium dissociation constants (KD values) for antigen binding to selected purified PAR-2 antibodies were determined by surface kinetics using a real-time surface plasmon resonance biosensor assay. Antibody was captured on either a rabbit anti-mouse IgG polyclonal antibody (GE Healthcare, Piscataway, N.J.) surface or a goat anti-human IgG polyclonal antibody (Jackson Immuno Research Lab, West Grove, Pa.) surface created through direct amine chemical coupling to a BIACORE™ CM5 sensor chip to form a captured antibody surface. […] Antigen-antibody binding and dissociation were monitored in real time at room temperature. Kinetic analysis was performed to calculate KD and half-life of antigen/antibody complex dissociation (Table 10). For those antibodies where no T_{1/2} value is shown, steady state analysis was used to calculate the KD value. NB: no binding observed under current experimental conditions. ND: not determined.

The target in experiment [7] is T5, full length human PAR-2. The experiment in a line: cell-based or functional assay.
Experiment [8] deals with T4, Peptide A (human PAR-2), unbiotinylated. The experiment in a line: SPR, antibody captured. How it is done:
as §3

Experiment [9] deals with T3, Peptide A (human PAR-2), C-terminal …. Nature of the experiment: SPR, peptide immobilized. In outline:
(§4)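 Neutravidin was amine-coupled to a C1 or CM5 chip, and N- or C-terminal biotinylated peptide was captured at low density (<1RU). Purified antibody at 5–100 μg/ml was injected at 50 μl/min for 300 s, with binding and dissociation monitored in real time at 25° C. KD was derived from surface kinetics.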

The target in experiment [10] is T6, Peptide B (human PAR-2), C-terminal biotinylated (Human, not fully specified).
T6 construct: also called Peptide B C-Term
T6 peptide: SLIGKVDGTSHVTGGGGGS-biotin
The experiment in a line: SPR, peptide immobilized. In outline: as §4

Experiment [11] concerns the target T1, Peptide A (human PAR-2), N-terminal …. Nature of the experiment: SPR, peptide immobilized.
Experiment [12] deals with T2, Peptide F (monkey PAR-2), N-terminal …. Nature of the experiment: SPR, peptide immobilized.
In experiment [13] the target is T7, Peptide B (human PAR-2), N-terminal biotinylated (Human).
T7 construct: also called Peptide B N-Term
T7 peptide: Biotin-GGGGSSLIGKVDGTSHVTG
Nature of the experiment: SPR, peptide immobilized.

B1: H4H584P (antibody, human IgG4, V domains shown)
VH: QVQLVESGGGVVQPGRSLRLSCVASGFTFSRYGMHWVRQAPGKGLEWVVVISYDGINKYYADSVKGRFTISRDNSKNTVYLQMNSLRAEDTAVYYCAKGDFWSGYFDYWGQGTLVTVSS
VL: DIVMTQTPLSSPVTLGQPASISCRSSQSLVHSDGNTYLSWLHQRPGQPPRLLIYKISNRFSGVPDRFSGSGAGTDFTLQISRVEAEDVGIYYCMQATQFPTFGGGTKVEIK
notes: also called H1H584P variable regions
For B1, the 50% effective concentration (EC50) in experiment [1] is 0.019 nM; in experiment [2] it was 0.012 nM; in experiment [3], 0.015 nM; in experiment [4], 0.012 nM; with full length human PAR-2 [5] it was 1.45 nM. In the experiment with full length human PAR-2 [5], this molecule came in with a Bmax of 26000 MSD Unit. Further, the Kd in experiment [6] was determined as 93.3 nM; in [8], 22 nM; in [9] it was 0.688 nM; in [10] it was 1.66 nM; in experiment [11], 0.525 nM; in [12], 0.565 nM. Moreover, in experiment [13], the Kd worked out at 3.2 nM. For the same molecule, the T1/2 in experiment [6] was determined as 0.23 min; in experiment [8], 0.73 min; in experiment [9], 55 min; in [10] it was 15 min; in experiment [11], 43 min; in experiment [12], 40 min. For the same molecule, the T1/2 in experiment [13] was 30 min. For the same molecule, in the experiment with full length human PAR-2 [7], the “IC50, NF-kB-luciferase, 20 nM Trypsin” value is 5.6 nM.

B2: H4H579P (antibody, human IgG4, V domains shown)
VH: B1 VH with V48L, V49I, A92G
VL: B1 VL with A96G
notes: also called H1H579P variable regions
For the molecule B2, the 50% effective concentration (EC50) in [1] amounted to 0.077 nM; in experiment [2] it was 0.061 nM; in [3], 0.076 nM; in experiment [4], 0.038 nM; with full length human PAR-2 [5], 1.86 nM. Further, in the experiment with full length human PAR-2 [5], the Bmax worked out at 25000 MSD Unit. The Kd in experiment [6] amounted to 49.4 nM; in experiment [8], 15 nM; in experiment [9] it was 0.143 nM; in experiment [10] it was 0.453 nM; in [11], 1.61 nM; in [12], 0.796 nM. Further, binding in [13] was characterised by a dissociation constant (Kd) of 5.44 nM. Besides, the T1/2 came to 2 min in [6]; 4.1 min in experiment [8]; 479 min in [9]; 96 min in experiment [10]; 46 min in [11]; 70 min in experiment [12]. The T1/2 in experiment [13] came to 55 min. Also, the “IC50, NF-kB-luciferase, 20 nM Trypsin” value in the experiment with full length human PAR-2 [7] was determined as 4.1 nM.

B3: H4H581P (antibody, human IgG4, V domains shown)
VH: B1 VH with M34I, V49I
VL: B1 VL
notes: also called mAb H4H581P; H1H581P variable regions
On to B3, for which the EC50 was 0.02 nM in [1]; 0.02 nM in experiment [2]; 0.028 nM in [3]; 0.012 nM in [4]; 0.652 nM in the experiment with full length human PAR-2 [5]. Further, in the experiment with full length human PAR-2 [5], the Bmax is 28200 MSD Unit. In addition, the dissociation constant (Kd) in experiment [6] was found to be 36.6 nM; in experiment [8], 9.44 nM; in experiment [9], 0.237 nM; in experiment [10] it was 0.346 nM; in [11] it was 0.498 nM; in experiment [12], 0.272 nM. This molecule had a Kd in experiment [13] of 2.72 nM. The T1/2 in experiment [6] turned out to be 0.53 min; in experiment [8] it was 1.4 min; in experiment [9], 134 min; in experiment [10] it was 49 min; in experiment [11] it was 41 min; in experiment [12] it was 78 min. This molecule also returned a T1/2 in experiment [13] of 38 min. In addition, the “IC50, NF-kB-luciferase, 20 nM Trypsin” value with full length human PAR-2 [7] worked out at 1.1 nM.

B4: H4H585P (antibody, human IgG4, V domains shown)
VH: B1 VH with V48L, V49I
VL: B1 VL with A96G
notes: also called H1H585P variable regions
On to B4, for which the EC50 in experiment [1] stood at 0.026 nM; in [2], 0.017 nM; in experiment [3], 0.021 nM; in [4], 0.017 nM; with full length human PAR-2 [5], 1.95 nM. In the experiment with full length human PAR-2 [5], this molecule gave a Bmax of 22500 MSD Unit. Further, the Kd came to 46.2 nM in experiment [6]; 8.78 nM in experiment [8]; 0.151 nM in [9]; 0.376 nM in [10]; 1.69 nM in experiment [11]; 0.899 nM in [12]. In addition, the equilibrium dissociation constant (Kd) in [13] came out at 5.41 nM. Further, the T1/2 in [6] was 2 min; in [8] it was 3.7 min; in [9], 493 min; in experiment [10] it was 123 min; in experiment [11], 48 min; in [12], 66 min. The T1/2 in [13] stood at 63 min. Also, the “IC50, NF-kB-luciferase, 20 nM Trypsin” value with full length human PAR-2 [7] was determined as 8.9 nM.

B5: H4H588N (antibody, human IgG4, V domains shown)
VH: EVQLLESGGGLVQPGGSLRLSCAASGFTFSSYAMTWVRQAPGKGLYWVSAISGGRGSAYYADSVKGRFTISRDNSKNTLYLQMNSLRAEDTAVYYCAKEGDSGYDLAYWGRGTLVTVSS
VL: DIQMTQSPSSLSASVGDRVTITCRARQGISNNLAWLQQKPGKAPKSLIYAASSLQSGIPSKFSGSGSGTYFTLTISSLQPEDFATYYCQQYKSSPLTFGGGTKVEIK
notes: also called H2M588N variable regions
In the case of B5, the concentration for a half-maximal effect (EC50) is 0.019 nM in experiment [1]; 0.012 nM in experiment [2]; 0.016 nM in experiment [3]; 0.01 nM in experiment [4]; 5.95 nM in the experiment with full length human PAR-2 [5]. In the experiment with full length human PAR-2 [5], this molecule showed a Bmax of 27500 MSD Unit. Also, the Kd was 10.8 nM in experiment [6]; 4.95 nM in [8]; 0.517 nM in experiment [9]; 1.03 nM in experiment [10]; 1.05 nM in experiment [11]; 1.81 nM in experiment [12]. For the same molecule, the equilibrium dissociation constant (Kd) in [13] turned out to be 0.0272 nM. Moreover, the T1/2 is 20 min in experiment [6]; 25.1 min in experiment [8]; 141 min in [9]; 70 min in experiment [10]; 189 min in experiment [11]; 94 min in experiment [12]. In experiment [13], this molecule showed a T1/2 above 1160 min. Further, the “IC50, NF-kB-luciferase, 20 nM Trypsin” value with full length human PAR-2 [7] was 16.9 nM.
